# Source: article PMC4972676 (Structure (London, England : 1993), 2016)
# Key:
# [1] = biological target: hRpn13 pleckstrin-like receptor for ubiquitin (Pru) domain (human, UniProt Q16186 1-150); experiment: ITC
# M1 diubiquitin = M1 diubiquitin (UniProt P0CG48 1-76; P0CG48 1-76); experiment: pull-down
# hRpn13 pleckstrin-like receptor for ubiquitin (Pru) domain, sequence (Q16186 1-150): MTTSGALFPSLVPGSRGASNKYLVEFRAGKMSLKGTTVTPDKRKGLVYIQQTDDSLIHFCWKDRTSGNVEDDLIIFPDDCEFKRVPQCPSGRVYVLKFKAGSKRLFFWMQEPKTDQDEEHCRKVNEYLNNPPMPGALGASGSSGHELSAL
Kd [1] [µM],binding result (M1 diubiquitin),Binder
9.3 ± 0.5,–,"hPLIC2 ubiquitin-like (UBL) domain (domain or fragment, human, UniProt Q9UHD9 33-107, looked up) IKVTVKTPKEKEEFAVPENSSVQQFKEAISKRFKSQTDQLVLIFAGKILKDQDTLIQHGIHDGLTVHLVIKSQNR"
–,binds,"GST-hRpn13^Pru (domain or fragment, human) TTSGALFPSLVPGSRGASNKYLVEFRAGKMSLKGTTVTPDKRKGLVYIQQTDDSLIHFCWKDRTSGNVEDDLIIFPDDCEFKRVPQCPSGRVYVLKFKAGSKRLFFWMQEPKTDQDEEHCRKVNEYLNNPPMPGALGASGSSGHELSAL"
